Test results: PMC10524599, “Sensory deficit screen identifies nsf mutation that differentially affects SNARE recycling and quality control” (Cell reports, 2023)

Biological target: the molecule itself
Assay: SEC; NSF alone, reassembled to the hexamer by a final SEC run with buffer containing 1 mM ATP

B1: I209N NSF (N-ethylmaleimide-sensitive factor, C. griseus ortholog with the I209N mutation) (enzyme)
chain: MAGRSMQAARCPTDELSLSNCAVVSEKDYQSGQHVIVRTSPNHKYIFTLRTHPSVVPGSVAFSLPQRKWAGLSIGQEIEVALYSFDKAKQCIGTMTIEIDFLQKKNIDSNPYDTDKMAAEFIQQFNNQAFSVGQQLVFSFNDKLFGLLVKDIEAMDPSILKGEPASGKRQKIEVGLVVGNSQVAFEKAENSSLNLIGKAKTKENRQSINNPDWNFEKMGIGGLDKEFSDIFRRAFASRVFPPEIVEQMGCKHVKGILLYGPPGCGKTLLARQIGKMLNAREPKVVNGPEILNKYVGESEANIRKLFADAEEEQRRLGANSGLHIIIFDEIDAICKQRGSMAGSTGVHDTVVNQLLSKIDGVEQLNNILVIGMTNRPDLIDEALLRPGRLEVKMEIGLPDEKGRLQILHIHTARMRGHQLLSADVDIKELAVETKNFSGAELEGLVRAAQSTAMNRHIKASTKVEVDMEKAESLQVTRGDFLASLENDIKPAFGTNQEDYASYIMNGIIKWGDPVTRVLDDGELLVQQTKNSDRTPLVSVLLEGPPHSGKTALAAKIAEESNFPFIKICSPDKMIGFSETAKCQAMKKIFDDAYKSQLSCVVVDDIERLLDYVPIGPRFSNLVLQALLVLLKKAPPQGRKLLIIGTTSRKDVLQEMEMLNAFSTTIHVPNIATGEQLLEALELLGNFKDKERTTIAQQVKGKKVWIGIKKLLMLIEMSLQMDPEYRVRKFLALLREEGASPLDFD
notes: legend gives 82.8 kDa monomeric, 496.8 kDa hexameric; also called NSF I209N; I209N NSF protein; source: E. coli BL21(DE3)-RIL, purified (Nickel-NTA, SEC; monomerized without ATP, reassembled by SEC with 1 mM ATP)
- stoichiometry N: 6
